B1: MKRMVSWSFHKLKTMKHLLLLLLCVFLVKSQGVNDNEEGFFSARGHRPLDKKREEAPSLRPAPPPISGGGYRARPAKAAATQKKVERKAPDAGGCLHADPDLGVLC (protein)
chain: MKRMVSWSFHKLKTMKHLLLLLLCVFLVKSQGVNDNEEGFFSARGHRPLDKKREEAPSLRPAPPPISGGGRARPAKAAATQKKVERKAPDAGGCLHADPDLGVLCMKRMVSWSFHKLKTMKHLLLLLLCVFLVKSQGVNDNEEGFFSARGHRPLDKKREEAPSLRPAPPPISGGGYRARPAKAAATQKKVERKAPDAGGCLHADPDLGVLC
modifications: GST fusion; fragment Fg1
notes: fragment of Bß chain of human fibrinogen having 106 amino acids; recombinant GST-fused peptide expressed in E. coli

What was measured:
[1] = test system: P. acnes 6919 strain; experiment: Adhesion assay, biotinylated P. acnes binding to HaCaT keratinocytes; format: cell-based, Propionibacterium acnes; details: P. acnes 6919 pre-treated with whole fibrinogen 0.01 to 0.5 mM, 1 h at 37° C.
Protocol: FIG. 12: Dose-dependent inhibition of P. acnes binding to keratinocytes. Biotinylated P. acnes 6919 strain at concentrations adjusted to 0.1 of absorbance at 600 nm was pre-treated with whole human (dark gray bar) and bovine (light gray bar) fibrinogen at the concentrations ranging from 0.01 to 0.5 mM and incubated 1 h at 37° C. with the human HaCaT keratinocyte cell line. After removal of unbound bacteria, adhesion activity was detected at 410 nm. Data are means±S.D. of three separate experiments. Statistical significance is indicated by * (P<0.05), ** (P<0.01), *** (P<0.001), and **** (P<0.0001), respectively.
The bacterial suspension was adjusted at 600 nm to the desired concentration, pretreated with peptides Fg1 and Fg2 at the final concentration ranging from 0.87 to 7 μM for 1 h at 37° C. and deposited on the previously saturated cells with a solution of PBS SVF 2% for 2 h. After incubation for 1 h at 37° C., unbound bacteria are removed by 3 washes with PBS and fixed bacteria are detected by a streptavidin-peroxidase solution of 0.5 μg/ml for 30 min.
Whole P. acnes bacteria are labelled by biotinylation, pre-treated or not with the peptides and contacted with the various cell lines. After removal of the unfixed bacteria, the adhesion activity was measured spectrophotometrically by using the streptavidin-peroxidase conjugate and a chromogenic substrate. […]

[2] = test system: NHDK cells; experiment: IL-8 production by keratinocytes stimulated by peptidoglycanne (PGN); format: cell-based, human; details: NHDK pre-treated 24 h with 1.75 to 7 μM, then PGN 10 μg/ml
Protocol: FIG. 19: Dose-dependent inhibition of IL-8 production by keratinocyte pre-treated by small Fg1-generated peptides and stimulated by peptidoglycanne (PGN). NHDK cell were incubated for 24 h with recombinant peptide Fg1 (light gray bar) and Fg2 (dark gray bar) at concentrations ranging from 1.75 to 7 μM. Measurement of IL-8 production was realized by ELISA as described in Materials and Methods. Controls experiments were done with unstimulated NHDK cell (white bar) and HDF stimulated with PGN at 10 μg/ml (black bar). Data are means±S.D. of three separate experiments. Statistical significance is indicated by * (P<0.05), ** (P<0.01), *** (P<0.001), and **** (P<0.0001), respectively. […]
Human IL-1ß, IL-8, IL-12, hBD-2, and TNF-α protein concentration was measured in the supernatants of stimulated cells using various ELISA Set kits (Ready-Set-Go kit from eBioscience for acne experiments, and for psoriasis experiments the Duo set IL-8 kit from R&D Systems and the BD-2 Human Development (hBD-2) from Peprotech) according to the manufacturer's instructions. […] The optical density was determined at 450 nm at a wavelength correction of 540 nm.
The production of IL-8 was also measured NHDK cells stimulated by LTA, LPS and PGN, in presence or not of Fg1 or Fg2. […]

[3] = test system: MRC5 cells; experiment: TNF-α production by P. acnes-stimulated MRC5 (ELISA); format: cell-based, human; details: 0.87 to 7 μM
Protocol: For experiences of stimulation with P. acnes, cells were incubated with the P. acnes suspension adjusted at the appropriate concentration, pre-treated for 1 h at 37° C. or not with fibrinogen recombinant peptides Fg1 and Fg2 at the concentrations 0.87, 1.75, 3.5 or 7 μM for the desired period of time at 37° C. in 5% CO2.
Human IL-1ß, IL-8, IL-12, hBD-2, and TNF-α protein concentration was measured in the supernatants of stimulated cells using various ELISA Set kits (Ready-Set-Go kit from eBioscience for acne experiments, and for psoriasis experiments the Duo set IL-8 kit from R&D Systems and the BD-2 Human Development (hBD-2) from Peprotech) according to the manufacturer's instructions. We used serial dilutions of recombinant human IL-1ß, IL-8, IL-12 and TNF-α for standard curve. The optical density was determined at 450 nm at a wavelength correction of 540 nm.
To assess the efficacy of Fg1 recombinant peptide, the production of O2^∘− and H2O2 by HaCaT cells NHDK, THP-1, MRC5 and HDF stimulated by pretreated P. acnes strains 6919, RON and PIE was measured. The amount of ROS produced was compared to that produced by the stimulated cells with untreated bacteria. Production baseline was obtained by measuring ROS on unstimulated cells. The production of IL-1ß, IL-8, IL-12 and TNF-α was also measured in all conditions cited above. The measurement of the production of ROS is performed by spectrofluorimetry in the presence of specific fluorochromes directly on the monolayer cell. Measurement of cytokine production was performed in parallel on the cell culture supernatant.
Two sets of experiments were implemented: 1) The cells were stimulated (18 h at 37° C.) by P. acnes strains previously pretreated with Fg1 and Fg2 peptides at the final concentrations ranging from 0.87 to 7 μM for 1 h at 37° C.; and 2) The cells were pretreated first with Fg1 and Fg2 peptides at the final concentrations ranging from 0.87 to 7 μM for 24 h at 37° C. and stimulated (18 h at 37° C.) by P. acnes strains.

Molecule	Inhibition of adhesion of P. acnes to keratinocytes [1]	Decrease of IL-8 production by PGN-stimulated cells [2]	Inhibition of Interleukine TNF alpha (TNF-α) production ([3]; P. acnes 6919, set I, bacteria first pretreated)	Inhibition of Interleukine TNF alpha (TNF-α) production ([3]; P. acnes 6919, set II, cells first pretreated)	Inhibition of Interleukine TNF alpha (TNF-α) production ([3]; P. acnes PIE, set I, bacteria first pretreated)	Inhibition of Interleukine TNF alpha (TNF-α) production ([3]; P. acnes PIE, set II, cells first pretreated)	Inhibition of Interleukine TNF alpha (TNF-α) production ([3]; P. acnes RON, set I, bacteria first pretreated)	Inhibition of Interleukine TNF alpha (TNF-α) production ([3]; P. acnes RON, set II, cells first pretreated)
human fibrinogen: purified commercial human fibrinogen (Sigma), glycoprotein hexamer of Aα, Bß and γ chains	able to inhibit the adhesion	–	–	–	–	–	–	–
B1	–	significantly decreases production of IL-8	pos	pos	pos	pos	pos	pos

Reference: US10323078B2, “Isolated peptides and fragments thereof from fibrinogen for use as drugs, particularly in skin inflammatory diseases” (Universite Paris Descartes, priority 2015, dated 2019)
